Article PMC3985960 (2014)

Target: T1, methylamine dehydrogenase (quinone MADH) (Paracoccus denitrificans, UniProt P22619)
T1 chain 1: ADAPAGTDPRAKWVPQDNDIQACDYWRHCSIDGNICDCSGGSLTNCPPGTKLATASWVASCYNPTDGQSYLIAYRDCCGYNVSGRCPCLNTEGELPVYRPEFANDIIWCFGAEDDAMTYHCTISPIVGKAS
T1 chain 2: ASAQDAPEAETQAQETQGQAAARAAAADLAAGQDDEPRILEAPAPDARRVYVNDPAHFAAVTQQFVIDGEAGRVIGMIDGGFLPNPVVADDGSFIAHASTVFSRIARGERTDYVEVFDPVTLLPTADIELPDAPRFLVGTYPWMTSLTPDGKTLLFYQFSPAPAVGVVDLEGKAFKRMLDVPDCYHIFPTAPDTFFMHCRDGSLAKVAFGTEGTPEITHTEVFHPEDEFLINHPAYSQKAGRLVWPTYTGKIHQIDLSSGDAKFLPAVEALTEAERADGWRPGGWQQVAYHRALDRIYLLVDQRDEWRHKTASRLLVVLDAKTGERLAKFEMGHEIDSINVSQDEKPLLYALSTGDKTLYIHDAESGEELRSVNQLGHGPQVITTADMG
Experiment: single-turnover kinetics

B1: MauG (protein)
chain: EQARPADDALAALGAQLFVDPALSRNATQSCATCHDPARAFTDPREGKAGLAVSVGDDGQSHGDRNTPTLGYAALVPAFHRDANGKYKGGQFWDGRADDLKQQAGQPMLNPVEMAMPDRAAVAARLRDDPAYRTGFEALFGKGVLDDPERAFDAAAEALAAYQATGEFSPFDSKYDRVMRGEEKFTPLEEFGYTVFITWNCRLCHMQRKQGVAERETFTNFEYHNIGLPVNETAREASGLGADHVDHGLLARPGIEDPAQSGRFKVPSLRNVAVTGPYMHNGVFTDLRTAILFYNKYTSRRPEAKINPETGAPWGEPEVARNLSLAELQSGLMLDDGRVDALVAFLETLTDRRYEPLLEESRAAQKD
Kd: 10.4 µM
